The target of one data set is T1, AMPK (Homo sapiens, UniProt Q13131).
T1 construct: Endogenous AMPK was immunoprecipitated from the cell extracts and assayed; endogenous in cells; host or cells: HeLa cells (control, or stably expressing wild type or kinase-dead LKB1)
In words: Activation and Thr-172 phosphorylation of endogenous AMPK in HeLa cells with or without stably expressed LKB1. The data set is classed as cell-based. Conditions: earlier unpublished results.

The target in data set [1] is T2, GST-LKB1-STRADα-MO25α complex (Mus musculus, UniProt Q9WTK7).
T2 construct: Constructs expressing the full length wild type and kinase dead mouse LKB1 have been described previously; made in house; host or cells: HEK-293 / HEK-293T cells, co-transfected
T2 sequence (Q9WTK7 1-433 limits assumed): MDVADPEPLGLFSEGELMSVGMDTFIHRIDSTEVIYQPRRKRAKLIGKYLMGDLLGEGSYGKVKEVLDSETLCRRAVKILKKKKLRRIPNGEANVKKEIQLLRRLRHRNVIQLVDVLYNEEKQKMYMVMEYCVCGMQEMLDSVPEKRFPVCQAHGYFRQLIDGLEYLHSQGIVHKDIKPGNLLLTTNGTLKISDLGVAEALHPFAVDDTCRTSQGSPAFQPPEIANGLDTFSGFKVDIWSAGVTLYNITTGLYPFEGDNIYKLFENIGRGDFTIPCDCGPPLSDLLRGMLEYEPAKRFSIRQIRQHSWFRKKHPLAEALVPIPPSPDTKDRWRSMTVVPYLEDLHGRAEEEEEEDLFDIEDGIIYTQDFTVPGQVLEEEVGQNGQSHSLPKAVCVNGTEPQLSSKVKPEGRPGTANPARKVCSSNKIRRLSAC
T2 sequence (Q7RTN6 1-431 partner): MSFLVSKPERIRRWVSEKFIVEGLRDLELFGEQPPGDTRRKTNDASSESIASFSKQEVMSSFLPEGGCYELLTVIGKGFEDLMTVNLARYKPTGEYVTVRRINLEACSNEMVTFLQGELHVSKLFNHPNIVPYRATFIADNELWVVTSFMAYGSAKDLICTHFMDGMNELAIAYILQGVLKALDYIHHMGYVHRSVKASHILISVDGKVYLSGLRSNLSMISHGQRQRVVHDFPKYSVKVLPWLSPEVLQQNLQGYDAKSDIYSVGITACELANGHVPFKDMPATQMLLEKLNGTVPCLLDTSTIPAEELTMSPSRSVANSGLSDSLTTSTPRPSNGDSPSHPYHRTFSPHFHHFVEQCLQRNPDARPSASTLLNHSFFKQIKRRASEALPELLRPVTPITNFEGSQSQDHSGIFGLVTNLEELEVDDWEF
T2 sequence (Q9Y376 1-341 partner): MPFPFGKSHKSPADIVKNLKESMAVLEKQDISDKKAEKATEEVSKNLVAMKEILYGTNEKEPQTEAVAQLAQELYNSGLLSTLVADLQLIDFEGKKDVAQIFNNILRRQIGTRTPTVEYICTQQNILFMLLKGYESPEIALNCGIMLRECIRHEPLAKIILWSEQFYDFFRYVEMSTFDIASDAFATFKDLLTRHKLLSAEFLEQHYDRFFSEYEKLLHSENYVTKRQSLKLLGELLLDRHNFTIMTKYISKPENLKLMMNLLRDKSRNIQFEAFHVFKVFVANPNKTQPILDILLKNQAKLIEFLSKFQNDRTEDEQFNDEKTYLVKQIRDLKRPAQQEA
The data set can be described thus: LKB1 kinase assay with AMPK T-loop peptide substrate (Example 3). The following applies: peptide 10-2000 μM, 0.1 mM ATP, 30 min at 30° C. In kind it is biochemical. The protocol: FIG. 20: Km and Vmax for a peptide substrate (termed AMPKtide). Assay conditions are described in Example 3.
An assay may be performed as follows. Other assays using such a substrate peptide may be used, for example in a high throughput format. The standard assay (50 μl) contained: 0.3 μg of purified GST-LKB1-STRADα-MO25α complex, 50 mM Tris/HCl pH 7.5, 0.1 mM EGTA, 0.1% (by vol) 2-mercaptoethanol, 10 mM magnesium acetate, 0.1 mM [γ^32P]ATP (˜200 cpm/pmol) and T-loop peptide ([…], 10-2000 μM). The assays were carried out for 30 min at 30° C., then terminated by pipetting the reaction mixture onto a 1 cm square of p81 paper, which was washed with 6 changes of 250 ml of 50 mM phosphoric acid (2 min each wash), the paper washed once in 200 ml of acetone and dried. Radioactivity bound to the p81 paper was quantitated by Cherenkov counting. 1 unit of activity is the amount of enzyme that catalyses the phosphorylation of 1 nmol of peptide per minute.

The target in another data set is T3, Flag-tagged STRADβ (human, UniProt Q9C0K7 1-418).
T3 construct: pCMV5 vector; also called Flag-STRADβ; FLAG-STRADβ
T3 sequence: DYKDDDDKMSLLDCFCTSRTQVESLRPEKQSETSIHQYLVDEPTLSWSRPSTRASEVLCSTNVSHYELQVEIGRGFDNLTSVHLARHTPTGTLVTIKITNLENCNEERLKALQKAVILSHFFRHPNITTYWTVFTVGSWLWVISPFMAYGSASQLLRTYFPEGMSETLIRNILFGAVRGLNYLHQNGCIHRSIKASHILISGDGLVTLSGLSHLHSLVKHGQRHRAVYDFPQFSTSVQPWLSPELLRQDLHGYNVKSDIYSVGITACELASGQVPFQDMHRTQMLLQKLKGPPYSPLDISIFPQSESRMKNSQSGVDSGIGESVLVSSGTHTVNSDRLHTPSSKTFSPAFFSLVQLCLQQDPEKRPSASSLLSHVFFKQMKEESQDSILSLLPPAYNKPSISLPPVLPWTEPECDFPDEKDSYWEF
The data set can be described thus: heterotrimeric complex purified through GST-LKB1 from co-transfected 293 cells, colloidal blue gel and blots. The protocol: (§1) FIG. 4. MO25α is associated with LKB1 through STRAD (A) 293 cells were transfected with plasmids encoding for the expression of the indicated GST fusion proteins together with Myc-MO25α. 36 h post transfection, the GST tagged proteins were affinity purified from the cell lysates using glutathione-Sepharose as described in Materials and Methods. […] 5 μg of total cell lysates prior to affinity purification were also subjected to immunoblotting with anti-Myc antibody to ensure that Myc-MO25α was expressed at similar levels in each co-transfection (lower panel). (B) N-terminal GST tagged LKB1 was expressed in 293 cells in the presence or absence of Flag-STRADα and purified as above. The purified proteins were subjected to SDS-polyacrylamide gel electrophoresis and visualised by Colloidal blue staining (upper panel). The faint protein band indicated, corresponding to an endogenous protein of 40-kDa (marked *), was identified by tryptic peptide mass-spectral fingerprint as endogenously expressed MO25α (with 38% sequence coverage). The purified proteins were also immunoblotted with the indicated antibodies (lower panels). (C) As above except that GST-LKB1 was expressed in 293 cells together with the indicated isoforms of Flag-STRAD and Myc-MO25 and the proteins visualised by colloidal blue staining were also immunoblotted with the indicated antibodies. For all panels, similar results were obtained in at least 3 separate experiments.
(§2) Expression of GST-fusion proteins in 293 cells and affinity purification. 10-cm diameter dishes of 293 cells were transiently transfected with 3 to 10 μg of the pEBG-2T constructs using a modified calcium phosphate method (Alessi et al., 1996). 36 h post-transfection, the cells were lysed and the clarified lysates were incubated for 1 h on a rotating platform with glutathione-Sepharose (25 μl/dish of lysate) previously equilibrated in lysis Buffer.

Another data set addresses T4, Flag-tagged STRADα (human, UniProt Q7RTN6 1-431, limits assumed).
T4 construct: pCMV5 vector; also called Flag-STRADα; FLAG-STRADα
T4 sequence: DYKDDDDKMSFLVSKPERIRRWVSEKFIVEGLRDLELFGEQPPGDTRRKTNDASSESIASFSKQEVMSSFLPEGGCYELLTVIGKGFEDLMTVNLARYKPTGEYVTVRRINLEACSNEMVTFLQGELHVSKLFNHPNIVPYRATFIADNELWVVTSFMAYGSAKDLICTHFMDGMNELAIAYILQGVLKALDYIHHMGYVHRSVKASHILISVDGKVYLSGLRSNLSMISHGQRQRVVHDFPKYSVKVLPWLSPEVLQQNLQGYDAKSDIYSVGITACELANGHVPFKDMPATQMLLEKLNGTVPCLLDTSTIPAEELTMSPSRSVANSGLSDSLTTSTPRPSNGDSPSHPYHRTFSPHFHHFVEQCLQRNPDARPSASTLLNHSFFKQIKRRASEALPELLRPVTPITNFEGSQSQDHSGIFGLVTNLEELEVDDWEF
The data set is described as above. The protocol: as §1, §2

For data set [2], the target named is T5, T-loop peptide of AMPK (Example 3).
T5 chain: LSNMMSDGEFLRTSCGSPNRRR

Data set [3] concerns the target T6, Flag-tagged STRADβ, Q9C0K7.
T6 chain: T3 sequence

In data set [4] the target is T7, Flag-tagged STRADα, Q7RTN6.
T7 chain: T4 sequence

T1 sequence (Q13131 whole entry): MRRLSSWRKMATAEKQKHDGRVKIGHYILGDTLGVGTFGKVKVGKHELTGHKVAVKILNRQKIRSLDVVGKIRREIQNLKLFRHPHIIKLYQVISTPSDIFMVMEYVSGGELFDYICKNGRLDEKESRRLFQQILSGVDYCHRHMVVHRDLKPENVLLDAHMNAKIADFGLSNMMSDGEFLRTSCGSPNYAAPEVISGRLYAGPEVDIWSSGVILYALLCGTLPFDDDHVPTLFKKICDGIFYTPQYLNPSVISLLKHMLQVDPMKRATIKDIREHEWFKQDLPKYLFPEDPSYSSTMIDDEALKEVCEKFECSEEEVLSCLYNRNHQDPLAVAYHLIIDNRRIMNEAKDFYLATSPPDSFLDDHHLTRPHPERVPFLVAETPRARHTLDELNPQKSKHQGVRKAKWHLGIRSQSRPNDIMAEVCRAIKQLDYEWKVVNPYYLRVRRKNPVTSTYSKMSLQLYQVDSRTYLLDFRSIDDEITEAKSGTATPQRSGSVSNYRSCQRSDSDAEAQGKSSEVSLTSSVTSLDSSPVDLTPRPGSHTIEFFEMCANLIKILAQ
T1 sequence (Q9Y478 2-270 partner limits assumed): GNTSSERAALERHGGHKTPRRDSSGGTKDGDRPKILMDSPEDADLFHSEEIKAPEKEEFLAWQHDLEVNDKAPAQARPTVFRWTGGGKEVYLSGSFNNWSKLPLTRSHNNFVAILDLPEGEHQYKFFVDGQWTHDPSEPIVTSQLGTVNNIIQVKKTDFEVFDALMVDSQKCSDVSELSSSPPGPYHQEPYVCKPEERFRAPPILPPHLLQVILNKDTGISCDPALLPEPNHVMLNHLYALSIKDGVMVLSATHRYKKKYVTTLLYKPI
T1 sequence (P54619 whole entry partner): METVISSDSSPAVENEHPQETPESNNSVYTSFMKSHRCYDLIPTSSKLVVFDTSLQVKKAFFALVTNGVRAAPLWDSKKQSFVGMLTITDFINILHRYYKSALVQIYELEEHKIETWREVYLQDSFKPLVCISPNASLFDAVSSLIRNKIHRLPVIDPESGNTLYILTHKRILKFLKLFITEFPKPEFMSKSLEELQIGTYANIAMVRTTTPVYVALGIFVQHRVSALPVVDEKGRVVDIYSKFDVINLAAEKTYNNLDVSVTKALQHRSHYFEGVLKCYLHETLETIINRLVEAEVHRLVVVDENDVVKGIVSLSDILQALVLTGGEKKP

Regarding `CN(C)C(=N)N=C(N)N` [metformin], the “activation of AMPK” value on AMPK is given as “not activated”.
As to “LSNMMSDGEFLRTSCGSPNRRR [AMPKtide, human AMPKα1 residues 163-181 with 3 additional Arg residues added to the C-terminal]”, in data set [1], the Km (as a rule, the substrate concentration at which the rate is half of its maximum) worked out at 1.8 ± 0.48 mM and the Vmax amounted to 23.4±3.5.

B1: N-terminal Myc-tagged MO25β (other)
chain: MEQKLISEEDLPLFSKSHKNPAEIVKILKDNLAILEKQDKKTDKASEEVSKSLQAMKEILCGTNEKEPPTEAVAQLAQELYSSGLLVTLIADLQLIDFEGKKDVTQIFNNILRRQIGTRSPTVEYISAHPHILFMLLKGYEAPQIALRCGIMLRECIRHEPLAKIILFSNQFRDFFKYVELSTFDIASDAFATFKDLLTRHKVLVADFLEQNYDTIFEDYEKLLQSENYVTKRQSLKLLGELILDRHNFAIMTKYISKPENLKLMMNLLRDKSPNIQFEAFHVFKVFVASPHKTQPIVEILLKNQPKLIEFLSSFQKERTDDEQFADEKNYLIKQIRDLKKTAP
notes: also called Myc-MO25β; myc-MO25β
For the molecule B1, the binding result with Flag-tagged STRADβ and with Flag-tagged STRADα was “binds” each time.

B2: recombinant GST-LKB1:STRADα:MO25α complex (protein)
chain 1: MDVADPEPLGLFSEGELMSVGMDTFIHRIDSTEVIYQPRRKRAKLIGKYLMGDLLGEGSYGKVKEVLDSETLCRRAVKILKKKKLRRIPNGEANVKKEIQLLRRLRHRNVIQLVDVLYNEEKQKMYMVMEYCVCGMQEMLDSVPEKRFPVCQAHGYFRQLIDGLEYLHSQGIVHKDIKPGNLLLTTNGTLKISDLGVAEALHPFAVDDTCRTSQGSPAFQPPEIANGLDTFSGFKVDIWSAGVTLYNITTGLYPFEGDNIYKLFENIGRGDFTIPCDCGPPLSDLLRGMLEYEPAKRFSIRQIRQHSWFRKKHPLAEALVPIPPSPDTKDRWRSMTVVPYLEDLHGRAEEEEEEDLFDIEDGIIYTQDFTVPGQVLEEEVGQNGQSHSLPKAVCVNGTEPQLSSKVKPEGRPGTANPARKVCSSNKIRRLSACKQQ
chain 2: T4 sequence
chain 3: T2 sequence (Q9Y376 1-341 partner)
Regarding B2, in data set [2], the “Km (phosphorylation of the T-loop peptide)” value is reported as “The Km for the peptide was estimated to be 1.80±0.48” and the “Vmax of phosphorylation of AMPKtide by the GST-LKB1-STRADα-MO25α complex” value is given as “Vmax: 23.43 ± 3.51 U/mg”.

B3: N-terminal GST tagged wild type LKB1 (protein)
chain: B2 chain 1
In the case of B3, the “LKB1 activity (autophosphorylation and phosphorylation of MBP)” value in data set [3] is “LKB1 was only activated by STRADβ in the presence of MO25 isoforms”; in data set [4] it was “co-expression with STRADα induced an 4-fold increase in LKB1 activity”. In addition, the Relative activation (MBP): 32P phosphorylation of MBP by affinity purified GST-LKB1-WT co-expressed with STRADα (lane 2), GST-LKB1 alone (lane 1) = 1 in data set [4] was found to be 3.9.

The values above are taken from US20070036793A1, “Methods for use of an lkb1/strad7mo25 complex” (priority 2003, published 2007).
